In publication PMC11417369, “DNA sequence and chromatin differentiate sequence-specific transcription factor binding in the human malaria parasite Plasmodium falciparum”:

B1: XGTACX_site6887 (dsDNA)
DNA 1: TATTTTCCATGAGGTAGTACACATTAAAAAATCGTT
DNA 2: AACGATTTTTTAATGTGTACTACCTCATGGAAAATA
B2: XGTACX_site1983 (dsDNA)
DNA 1: GTTTGGTGGTGTTTTGGTACGTACGGGGGGGTATGT
DNA 2: ACATACCCCCCCGTACGTACCAAAACACCACCAAAC
B3: XGTACX_site4991 (dsDNA)
DNA 1: TAAAATAATATATGGTGTACACAAAAGTATAAATAA
DNA 2: TTATTTATACTTTTGTGTACACCATATATTATTTTA
B4: XGTACX_site1704 (dsDNA)
DNA 1: CTCGTATATATAATACGTACATATTATATATATATA
DNA 2: TATATATATATAATATGTACGTATTATATATACGAG
B5: XGTACX_site7607 (dsDNA)
DNA 1: AATATACAATAAAGGTGTACACATATATGATGCAAG
DNA 2: CTTGCATCATATATGTGTACACCTTTATTGTATATT
B6: XGTACX_site7170 (dsDNA)
DNA 1: GTTTAGATAAAAGGGCGTACATCTATTTTTGACTAA
DNA 2: TTAGTCAAAAATAGATGTACGCCCTTTTATCTAAAC
B7: XGTACX_site3746 (dsDNA)
DNA 1: ATATAAAATATTACGTGTACACATAAATAAAAATAA
DNA 2: TTATTTTTATTTATGTGTACACGTAATATTTTATAT
B8: XGTACX_site3301 (dsDNA)
DNA 1: TTTTCTTTTTGTTCGTGTACACACATGAAATTTATA
DNA 2: TATAAATTTCATGTGTGTACACGAACAAAAAGAAAA
B9: XGTACX_site5245 (dsDNA)
DNA 1: AAAAACAAAATTTGGAGTACAGTTATAATATTATTA
DNA 2: TAATAATATTATAACTGTACTCCAAATTTTGTTTTT
B10: XGTACX_site5429 (dsDNA)
DNA 1: ATGGACATCTATTGTTGTACACATTTTCCCATAACA
DNA 2: TGTTATGGGAAAATGTGTACAACAATAGATGTCCAT
B11: XGTACX_site6677 (dsDNA)
DNA 1: TTGTATTTCCTTAGGAGTACACATAAATAAGTAAAT
DNA 2: ATTTACTTATTTATGTGTACTCCTAAGGAAATACAA
B12: XGTACX_site3586 (dsDNA)
DNA 1: TATACATACATTAGACGTACACATTTTACCTACACC
DNA 2: GGTGTAGGTAAAATGTGTACGTCTAATGTATGTATA
B13: XGTACX_site5457 (dsDNA)
DNA 1: ATGGATAACAATATGTGTACACATTTATATCTCCAC
DNA 2: GTGGAGATATAAATGTGTACACATATTGTTATCCAT
B14: XGTACX_site8307 (dsDNA)
DNA 1: AAATTATAAAAATGTAGTACAGACAATATATTCGTA
DNA 2: TACGAATATATTGTCTGTACTACATTTTTATAATTT
B15: XGTACX_site4360 (dsDNA)
DNA 1: GATTAAAATCAAAGGTGTACGCACAAATAAGTCCCA
DNA 2: TGGGACTTATTTGTGCGTACACCTTTGATTTTAATC
B16: XGTACX_site718 (dsDNA)
DNA 1: GTATTAATTTTAAGGTGTACGCAAAAAATTTAATTT
DNA 2: AAATTAAATTTTTTGCGTACACCTTAAAATTAATAC
B17: XGTACX_site96 (dsDNA)
DNA 1: TGGAACCATAAAAAGTGTACACATATAAAAAATATG
DNA 2: CATATTTTTTATATGTGTACACTTTTTATGGTTCCA
B18: XGTACX_site2346 (dsDNA)
DNA 1: TTAATAATAAAAAGGAGTACACTAATATACTATAAA
DNA 2: TTTATAGTATATTAGTGTACTCCTTTTTATTATTAA
B19: XGTACX_site7325 (dsDNA)
DNA 1: TTTTTTTTATTTTGTTGTACGCTTATTTGTATATAT
DNA 2: ATATATACAAATAAGCGTACAACAAAATAAAAAAAA
B20: XGTACX_site8267 (dsDNA)
DNA 1: AGATAAATATATTGTAGTACAGGAGCATAAATATAT
DNA 2: ATATATTTATGCTCCTGTACTACAATATATTTATCT
B21: XGTACX_site4956 (dsDNA)
DNA 1: AATAAATGGAAAAGGTGTACACAAAAAAAAGGGAAA
DNA 2: TTTCCCTTTTTTTTGTGTACACCTTTTCCATTTATT
B22: XGTACX_site3752 (dsDNA)
DNA 1: TAAAAAAAAAAAAAAAGTACACACATACATATAAAT
DNA 2: ATTTATATGTATGTGTGTACTTTTTTTTTTTTTTTA
B23: XGTACX_site6504 (dsDNA)
DNA 1: TGAAAAGATAAAAAAAGTACACACACACATATATAT
DNA 2: ATATATATGTGTGTGTGTACTTTTTTTATCTTTTCA
B24: XGTACX_site7025 (dsDNA)
DNA 1: TTTTTCTTTTTTTGGGGTACAGGGAAATCTATATTT
DNA 2: AAATATAGATTTCCCTGTACCCCAAAAAAAGAAAAA
B25: XGTACX_site5031 (dsDNA)
DNA 1: ACATTATATAAAATATGTACACATAAATAAATAAAT
DNA 2: ATTTATTTATTTATGTGTACATATTTTATATAATGT
B26: XGTACX_site3444 (dsDNA)
DNA 1: TATATTATATATTTATGTACGTATTTGTAAAAAGAT
DNA 2: ATCTTTTTACAAATACGTACATAAATATATAATATA
B27: XGTACX_site4899 (dsDNA)
DNA 1: TATTCGTGCAATAGTAGTACACTTATAAATTATTCT
DNA 2: AGAATAATTTATAAGTGTACTACTATTGCACGAATA
B28: XGTACX_site820 (dsDNA)
DNA 1: ACAATTGAAGAAATACGTACATAAAGAAAAACTAGT
DNA 2: ACTAGTTTTTCTTTATGTACGTATTTCTTCAATTGT
B29: XGTACX_site3596 (dsDNA)
DNA 1: AAGGAAAATTTTTGGTGTACACAAAAAAATCCAAAA
DNA 2: TTTTGGATTTTTTTGTGTACACCAAAAATTTTCCTT
B30: XGTACX_site7727 (dsDNA)
DNA 1: GGTGTATGTTAAAGGAGTACATATATATATATATAT
DNA 2: ATATATATATATATATGTACTCCTTTAACATACACC
B31: XGTACX_site146 (dsDNA)
DNA 1: GGACGTATTAAAAGGCGTACACTAAATATTTTATGT
DNA 2: ACATAAAATATTTAGTGTACGCCTTTTAATACGTCC
B32: XGTACX_site4176 (dsDNA)
DNA 1: ATAAATTTAAATAGGAGTACACAGCTTTATATTTTG
DNA 2: CAAAATATAAAGCTGTGTACTCCTATTTAAATTTAT
B33: XGTACX_site206 (dsDNA)
DNA 1: TGTTTATACATCAGGTGTACGCAAAATAATTGTATG
DNA 2: CATACAATTATTTTGCGTACACCTGATGTATAAACA
B34: XGTACX_site8253 (dsDNA)
DNA 1: TTTTATGAAAAGATGAGTACACAATACTTTTTAATT
DNA 2: AATTAAAAAGTATTGTGTACTCATCTTTTCATAAAA
B35: XGTACX_site8426 (dsDNA)
DNA 1: TAATATTTATAATAGTGTACACAATTATAAACTGAA
DNA 2: TTCAGTTTATAATTGTGTACACTATTATAAATATTA
B36: XGTACX_site6072 (dsDNA)
DNA 1: CGTTTATATTTTAACTGTACTCAAAAAGTGCATTGT
DNA 2: ACAATGCACTTTTTGAGTACAGTTAAAATATAAACG
B37: XGTACX_site4340 (dsDNA)
DNA 1: TGATACTTTTTTTGTAGTACTCCTAAAATTATAAAA
DNA 2: TTTTATAATTTTAGGAGTACTACAAAAAAAGTATCA
B38: XGTACX_site6231 (dsDNA)
DNA 1: ATGTTTTATAAAAGGCGTACACATATATTTAAGTAA
DNA 2: TTACTTAAATATATGTGTACGCCTTTTATAAAACAT
B39: XGTACX_site882 (dsDNA)
DNA 1: TTTTCTTTTTTGAACTGTACGCGTAAATTTAAAAAG
DNA 2: CTTTTTAAATTTACGCGTACAGTTCAAAAAAGAAAA
B40: XGTACX_site2251 (dsDNA)
DNA 1: GTGTAAAAATTAAAGTGTACACATATATATATATAT
DNA 2: ATATATATATATATGTGTACACTTTAATTTTTACAC
B41: XGTACX_site7745 (dsDNA)
DNA 1: GGGGACGCGGGTGGGGGTACTCACACTATGCAAAAT
DNA 2: ATTTTGCATAGTGTGAGTACCCCCACCCGCGTCCCC
B42: XGTACX_site2835 (dsDNA)
DNA 1: GGGGGGATGAGATATTGTACTTTTTAGGAAAGTGTA
DNA 2: TACACTTTCCTAAAAAGTACAATATCTCATCCCCCC
B43: XGTACX_site6396 (dsDNA)
DNA 1: CCTATAATTAGGGGTAGTACACAAAAAAAAAAAAAA
DNA 2: TTTTTTTTTTTTTTGTGTACTACCCCTAATTATAGG

The binders below were run against T1, AP2-G D1 (Plasmodium falciparum, UniProt Q8I5I9 2123-2245) (assay: gcPBM; about 25 ug protein; PBS, 1% milk, 0.2 mg/ml BSA, salmon testes DNA, 0.03% Triton X-100). Settings: tags: N-terminal GST (pGEX-4T-1), kept; label: surface-attached array probe.
T1 sequence: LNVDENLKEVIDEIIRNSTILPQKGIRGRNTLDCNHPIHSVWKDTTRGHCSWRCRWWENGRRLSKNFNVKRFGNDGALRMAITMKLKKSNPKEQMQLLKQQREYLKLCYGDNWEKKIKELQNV
B1 was tested, and the binding signal was 12.8 ln median PBM intensity, better of two orientations.
For B2, the binding signal was 12.7 ln median PBM intensity, better of two orientations.
With B3 the binding signal was 13.2 ln median PBM intensity, better of two orientations.
With B4 the binding signal was 12.9 ln median PBM intensity, better of two orientations.
For B5, the binding signal was 12.8 ln median PBM intensity, better of two orientations.
For B6, the binding signal was 12.7 ln median PBM intensity, better of two orientations.
B7 was tested, and the binding signal was 13 ln median PBM intensity, better of two orientations.
With B8 the binding signal was 13 ln median PBM intensity, better of two orientations.
For B9, the binding signal was 12.7 ln median PBM intensity, better of two orientations.
B10 was tested, and the binding signal was 13.1 ln median PBM intensity, better of two orientations.
B11 was tested, and the binding signal was 12.7 ln median PBM intensity, better of two orientations.
For B12, the binding signal was 12.8 ln median PBM intensity, better of two orientations.
For B13, the binding signal was 12.8 ln median PBM intensity, better of two orientations.
For B14, the binding signal was 12.7 ln median PBM intensity, better of two orientations.
B15 was tested, and the binding signal was 12.7 ln median PBM intensity, better of two orientations.
For B16, the binding signal was 13.1 ln median PBM intensity, better of two orientations.
In the case of B17, the binding signal is reported as 12.8 ln median PBM intensity, better of two orientations.
In the case of B18, the binding signal is reported as 12.7 ln median PBM intensity, better of two orientations.
For B19, the binding signal was 12.8 ln median PBM intensity, better of two orientations.
B20 was tested, and the binding signal was 12.8 ln median PBM intensity, better of two orientations.
In the case of B21, the binding signal is reported as 12.8 ln median PBM intensity, better of two orientations.
In the case of B22, the binding signal is reported as 12.7 ln median PBM intensity, better of two orientations.
For B23, the binding signal was 12.7 ln median PBM intensity, better of two orientations.
In the case of B24, the binding signal is reported as 12.7 ln median PBM intensity, better of two orientations.
With B25 the binding signal was 12.7 ln median PBM intensity, better of two orientations.
With B26 the binding signal was 12.8 ln median PBM intensity, better of two orientations.
With B27 the binding signal was 12.7 ln median PBM intensity, better of two orientations.
With B28 the binding signal was 12.9 ln median PBM intensity, better of two orientations.
With B29 the binding signal was 12.8 ln median PBM intensity, better of two orientations.
With B30 the binding signal was 12.7 ln median PBM intensity, better of two orientations.
With B31 the binding signal was 12.8 ln median PBM intensity, better of two orientations.
In the case of B32, the binding signal is reported as 13 ln median PBM intensity, better of two orientations.
In the case of B33, the binding signal is reported as 12.7 ln median PBM intensity, better of two orientations.
B34 was tested, and the binding signal was 12.7 ln median PBM intensity, better of two orientations.
B35 was tested, and the binding signal was 12.7 ln median PBM intensity, better of two orientations.
B36 was tested, and the binding signal was 12.7 ln median PBM intensity, better of two orientations.
With B37 the binding signal was 12.8 ln median PBM intensity, better of two orientations.
B38 was tested, and the binding signal was 13.5 ln median PBM intensity, better of two orientations.
With B39 the binding signal was 12.7 ln median PBM intensity, better of two orientations.
For B40, the binding signal was 12.8 ln median PBM intensity, better of two orientations.
With B41 the binding signal was 13 ln median PBM intensity, better of two orientations.
B42 was tested, and the binding signal was 13.2 ln median PBM intensity, better of two orientations.
For B43, the binding signal was 12.8 ln median PBM intensity, better of two orientations.
